Patent US20200377573A1 (Daiichi Sankyo, published 2020)
Changes are numbered by the printed parent chain. Where two headings read alike, the source gives them in different places. Values belong to the binder of their own block, whether it stands above or below them.

Assays:
Experiment in all cases: cell-based or functional assay
HTRA1 (full) [1] = molecular target: T1, HTRA1 (full) (human, UniProt Q92743 23-480)
HTRA1 (cat) [2] = molecular target: T2, HTRA1 (cat) (human, UniProt Q92743 158-373)
HTRA1 (full) [3] = molecular target: T1, HTRA1 (full); remark: listed apart in the source
HTRA1 (cat) [4] = molecular target: T2, HTRA1 (cat); remark: listed apart in the source

T2 sequence (Q92743 158-373, form in doubt): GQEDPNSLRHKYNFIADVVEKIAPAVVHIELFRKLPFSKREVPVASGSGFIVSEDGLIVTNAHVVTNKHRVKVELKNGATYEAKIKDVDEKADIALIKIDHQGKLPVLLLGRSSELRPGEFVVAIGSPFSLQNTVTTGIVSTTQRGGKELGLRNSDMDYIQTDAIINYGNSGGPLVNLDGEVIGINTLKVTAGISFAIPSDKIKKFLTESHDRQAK
T1 sequence (Q92743 23-480): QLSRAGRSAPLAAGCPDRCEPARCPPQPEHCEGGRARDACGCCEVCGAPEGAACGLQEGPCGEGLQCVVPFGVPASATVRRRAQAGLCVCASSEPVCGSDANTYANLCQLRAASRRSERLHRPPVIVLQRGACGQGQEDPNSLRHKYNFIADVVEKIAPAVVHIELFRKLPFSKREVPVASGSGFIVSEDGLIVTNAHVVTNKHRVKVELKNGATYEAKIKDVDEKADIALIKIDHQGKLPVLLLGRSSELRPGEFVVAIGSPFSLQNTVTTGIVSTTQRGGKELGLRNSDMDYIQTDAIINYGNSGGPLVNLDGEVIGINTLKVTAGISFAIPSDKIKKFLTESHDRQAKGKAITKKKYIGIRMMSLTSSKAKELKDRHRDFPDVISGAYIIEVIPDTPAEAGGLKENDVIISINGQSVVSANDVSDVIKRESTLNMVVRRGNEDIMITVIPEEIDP

B1: peptide derivative H322AT (designed binder)
chain: DPQFGLFSKYRTPNCSQHEGMACYALYEPVCGSDMSTYANECTLCMKIREGGHNIKIIRNGPCGG
IC50 (nM) for HTRA1 (full), decomposition rate of substrate peptide H2-Opt (HTRA1 (full) [1]): 25 nM
IC50 (nM) for HTRA1 (cat), decomposition rate of substrate peptide H2-Opt (HTRA1 (cat) [2]): 45 nM

B2: peptide H321 (designed binder)
chain: B1 chain with Q17D, H18F, E19D, L26F, A39M, T43A
IC50 (nM) for HTRA1 (full), decomposition rate of substrate peptide H2-Opt (HTRA1 (full) [1]): 29 nM
IC50 (nM) for HTRA1 (cat), decomposition rate of substrate peptide H2-Opt (HTRA1 (cat) [2]): 48 nM

B6: peptide H223 (designed binder)
chain: B1 chain with S16T, Q17M, H18D, E19M, Y24W, L26F
IC50 (nM) for HTRA1 (full), decomposition rate of substrate peptide H2-Opt (HTRA1 (full) [1]): 66 nM
IC50 (nM) for HTRA1 (cat), decomposition rate of substrate peptide H2-Opt (HTRA1 (cat) [2]): 41 nM

B8: peptide H308 (designed binder)
chain: B1 chain with Q17D, E19A, Y24V, A39E, T43V
IC50 (nM) for HTRA1 (full), decomposition rate of substrate peptide H2-Opt (HTRA1 (full) [1]): 15 nM
IC50 (nM) for HTRA1 (cat), decomposition rate of substrate peptide H2-Opt (HTRA1 (cat) [2]): 37 nM

B9: peptide H218 (designed binder)
chain: B1 chain with S16L, Q17K, H18S, L26Y
IC50 (nM) for HTRA1 (full), decomposition rate of substrate peptide H2-Opt (HTRA1 (full) [1]): 55 nM
IC50 (nM) for HTRA1 (cat), decomposition rate of substrate peptide H2-Opt (HTRA1 (cat) [2]): 72 nM

B10: peptide derivative H308_D1G_S16A (designed binder)
chain: B1 chain with D1G, S16A, Q17D, E19A, Y24V, A39E, T43V
IC50 (nM) for HTRA1 (full), decomposition rate of substrate peptide H2-Opt (HTRA1 (full) [3]): 9.1 nM
IC50 (nM) for HTRA1 (cat), decomposition rate of substrate peptide H2-Opt (HTRA1 (cat) [4]): 7.9 nM

B13: peptide derivative H322AT_D1G_S16A (designed binder)
chain: B1 chain with D1G, S16A
IC50 (nM) for HTRA1 (full), decomposition rate of substrate peptide H2-Opt (HTRA1 (full) [3]): 12.2 nM
IC50 (nM) for HTRA1 (cat), decomposition rate of substrate peptide H2-Opt (HTRA1 (cat) [4]): 12.9 nM

The remaining lines, values ahead:

IC50 (nM) for HTRA1 (full), decomposition rate of substrate peptide H2-Opt (HTRA1 (full) [1]): 38 nM
IC50 (nM) for HTRA1 (cat), decomposition rate of substrate peptide H2-Opt (HTRA1 (cat) [2]): 71 nM
B3: peptide H228 (designed binder)
chain: B1 chain with S16G, Q17H, H18Y, E19N, M21W, Y24Q, L26F, Y27F

IC50 (nM) for HTRA1 (full), decomposition rate of substrate peptide H2-Opt (HTRA1 (full) [1]): 31 nM
IC50 (nM) for HTRA1 (cat), decomposition rate of substrate peptide H2-Opt (HTRA1 (cat) [2]): 49 nM
B4: peptide derivative H308AT (designed binder)
chain: B1 chain with Q17D, E19A, Y24V

IC50 (nM) for HTRA1 (full), decomposition rate of substrate peptide H2-Opt (HTRA1 (full) [1]): 17 nM
IC50 (nM) for HTRA1 (cat), decomposition rate of substrate peptide H2-Opt (HTRA1 (cat) [2]): 50 nM
B5: peptide H322 (designed binder)
chain: B1 chain with A39V, T43A

IC50 (nM) for HTRA1 (full), decomposition rate of substrate peptide H2-Opt (HTRA1 (full) [1]): 24 nM
IC50 (nM) for HTRA1 (cat), decomposition rate of substrate peptide H2-Opt (HTRA1 (cat) [2]): 43 nM
B7: peptide M7 (designed binder)
chain: B1 chain with Q17D, E19A, Y24V, L26F

IC50 (nM) for HTRA1 (full), decomposition rate of substrate peptide H2-Opt (HTRA1 (full) [3]): 12 nM
IC50 (nM) for HTRA1 (cat), decomposition rate of substrate peptide H2-Opt (HTRA1 (cat) [4]): 9 nM
B11: peptide derivative H321AT_D1G_S16A (designed binder)
chain: B1 chain with D1G, S16A, Q17D, H18F, E19D, L26F

IC50 (nM) for HTRA1 (full), decomposition rate of substrate peptide H2-Opt (HTRA1 (full) [1]): 18 nM
IC50 (nM) for HTRA1 (cat), decomposition rate of substrate peptide H2-Opt (HTRA1 (cat) [2]): 46 nM
B12: peptide derivative H321AT (designed binder)
chain: B1 chain with Q17D, H18F, E19D, L26F
